In publication PMC4440780, “Turning Escherichia coli into a Frataxin-Dependent Organism” (PLoS Genetics, 2015):

How the values were obtained:
[1] = molecular target: T1, (his)6-IscS, E. coli cysteine desulfurase IscS (E. coli, UniProt P0A6B7 1-404); experiment: co-elution on anion exchange chromatography (QFF); purified His-tagged proteins mixed anaerobically 1:1:1 (144 uM each) for 40 min with 4-fold excess Fe(SO4)2(NH4)2, 10-fold excess L-cysteine, 5 mM DTT in 50 mM Tris-HCl pH 8; loaded on a 1-mL QFF column, eluted with a gradient to 1 M NaCl; fractions analysed by SDS-PAGE; the single proteins elute at lower salt; conditions: both partners purified
T1 construct: IscS, cysteine desulfurase of E. coli; not shown: His6, N-terminal, kept

[2] = molecular target: T2, IscU_(I108M)-(his)6, E. coli IscU with the Ile108Met substitution (E. coli, UniProt P0ACD4 1-128, I108M); experiment: as above; conditions: both partners purified
T2 construct: IscU, Fe-S cluster scaffold protein of E. coli K-12 MG1655; coding region amplified from pIscUIM and cloned NdeI/HindIII into pET21a+; the methods say the proteins were mixed with Fe(SO4)2(NH4)2, L-cysteine and DTT; By gel filtration it exists mainly as a dimer; also called IscUIM; His-tagged IscUIM; not shown: His6, C-terminal, kept

B1: CyaY-(his)6, E. coli frataxin homolog CyaY (natural protein, UniProt P27838 1-106, looked up)
chain: MNDSEFHRLADQLWLTIEERLDDWDGDSDIDCEINGGVLTITFENGSKIIINRQEPLHQVWLATKQGGYHFDLKGDEWICDRSGETFWDLLEQAATQQAGETVSFR
notes: CyaY, frataxin homolog of E. coli; not shown: His6, C-terminal, kept
[1]
  binding result: binds
[2]
  binding result: binds
